Values belong to the molecule of their own block, whether it stands above or below them.
Tests used:
[1] = biological target: recombinant pig GlyR α1 subunit without fluorophore (pig); test: cryo-EM structure
[2] = biological target: Glycine receptor β subunit (native heteromeric GlyR, 4α:1β) (Sus scrofa, UniProt A0A4X1TUM3+Q6KBX4); test: cryo-EM structure; assay type: binding
[3] = biological target: T1, recombinant pig GlyR α1 subunit tagged with YFP (pig); test: SEC
T1 chain: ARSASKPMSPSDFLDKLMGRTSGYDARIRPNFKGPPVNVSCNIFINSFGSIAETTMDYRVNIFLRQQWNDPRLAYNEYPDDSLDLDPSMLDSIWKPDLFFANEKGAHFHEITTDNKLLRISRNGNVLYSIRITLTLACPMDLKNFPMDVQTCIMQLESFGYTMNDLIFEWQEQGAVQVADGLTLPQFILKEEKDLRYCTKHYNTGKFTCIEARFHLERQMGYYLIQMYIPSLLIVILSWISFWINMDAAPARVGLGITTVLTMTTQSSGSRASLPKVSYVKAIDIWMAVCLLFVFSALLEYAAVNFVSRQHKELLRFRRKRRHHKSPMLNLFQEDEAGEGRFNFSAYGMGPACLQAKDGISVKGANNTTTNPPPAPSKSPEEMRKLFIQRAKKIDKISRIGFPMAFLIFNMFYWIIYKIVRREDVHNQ

[4] = biological target: T2, recombinant pig GlyR α1 subunit without fluorophore (pig); test: cryo-EM structure
T2 chain: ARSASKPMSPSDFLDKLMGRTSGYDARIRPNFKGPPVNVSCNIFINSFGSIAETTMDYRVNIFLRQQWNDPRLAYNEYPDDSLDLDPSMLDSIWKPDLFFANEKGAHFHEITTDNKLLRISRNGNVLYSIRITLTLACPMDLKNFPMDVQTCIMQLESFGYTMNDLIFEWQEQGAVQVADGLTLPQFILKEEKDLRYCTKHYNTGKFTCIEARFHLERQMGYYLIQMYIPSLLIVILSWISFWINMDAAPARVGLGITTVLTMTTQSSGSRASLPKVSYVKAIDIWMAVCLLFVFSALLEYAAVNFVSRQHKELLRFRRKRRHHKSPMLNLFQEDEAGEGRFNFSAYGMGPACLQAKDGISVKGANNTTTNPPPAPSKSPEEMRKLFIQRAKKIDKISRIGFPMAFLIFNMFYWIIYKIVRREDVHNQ

- stoichiometry N (α subunits per β subunit) [1]: 4
Molecule: recombinant pig GlyR β subunit without fluorophore (receptor)

Molecule: NCC(=O)O [glycine]
- cryo-EM structure (2.7 Å) [2]: formed between the hydroxyl moiety of βY231 and the carboxyl group of glycine

- binding result [3]: binds
- binding result [4]: binds
B1: anti-GlyR α 3D1 Fab (Fab, V domains shown)
VH: QVQLQQSGAELMKPGAAVKISCKATGHTISRYWIDWLKQRPGHGLEWIGEILPGSGSTNYNEKFKGKATFTAEKSSNTAYMQLSSLTSEDSAVYYCAMGVRGNYFDYWGQGTTLTVSS
VL: DIVMTQSHKFMSTSVGDRVSITCKASQDVSTAVAWYQQKPGQSPKLLIYWASTRHTGVPGRFTGSGSGTDYTLTISSVQAEDLSLYYCQQHYSTPRTFGGGTKLEIK

Reference: publication PMC8647860 (Nature, 2021)
